Residue numbers refer to the chain shown, from its start.
T1: IL-17 (Homo sapiens, UniProt Q16552 Q16552:24-155)
T1 sequence: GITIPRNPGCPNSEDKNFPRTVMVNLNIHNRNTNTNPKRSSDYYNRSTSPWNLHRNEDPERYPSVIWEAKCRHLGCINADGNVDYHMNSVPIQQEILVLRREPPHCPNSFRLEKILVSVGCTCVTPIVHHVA

T2: IL-17 (IL-17A) (Homo sapiens, UniProt Q16552 Q16552:24-155)
T2 sequence: T1 sequence

B1: aptamer No. 74 (mixed)
mixed: GGGUAGCCGGAGGAGTCAGTAAUCGGUACCC
modifications: 2'-OMe (M), 2'-F (F) as marked; uppercase DNA [2'-OMe: 1-5,7,8,10,13,14,21-26,28-31; 2'-F: 11,17,18,27]
B2: aptamer No. 57 (mixed)
mixed: B1 mixed
modifications: 2'-OMe (M), 2'-F (F), PS (S) as marked; uppercase DNA [2'-OMe: 1,2,3,4,7,8,10,13,14,19,21,22,23,24,25,26,28; 2'-F: 11,17,18,27; PS: 6,15]
B3: aptamer No. 67 (mixed)
mixed: B1 mixed
modifications: 2'-OMe (M), 2'-F (F), PS (S) as marked; uppercase DNA [2'-OMe: 1-5,7,8,10,13,14,17,21-31; 2'-F: 11,18; PS: 6,15,19]
B4: aptamer No. 55 (mixed)
mixed: B1 mixed with A21G
modifications: 2'-OMe (M), 2'-F (F), PS (S) as marked; uppercase DNA [2'-OMe: 1,2,3,4,7,8,10,13,14,23,24,25,26,28; 2'-F: 11,17,18,27; PS: 6]
B5: aptamer No. 71 (mixed)
RNA: B1 mixed with T16U, T20U
modifications: 2'-OMe (M), 2'-F (F), PS (S) as marked; uppercase DNA [2'-OMe: 1-5,7,8,10,13,14,17,21-26,28-31; 2'-F: 11,16,18,20,27; PS: 6,15,19]
B6: aptamer No. 88 (mixed)
RNA: B1 mixed with T16U, T20U, A21G
modifications: 2'-OMe (M), 2'-F (F), PS (S) as marked; uppercase DNA [2'-OMe: 1-5,7,8,10,11,13,14,17,22-26,28-31; 2'-F: 16,18,20,27; PS: 6,15,19; DNA: 9]
B7: aptamer No. 61 (mixed)
mixed: B1 mixed
modifications: 2'-OMe (M), 2'-F (F), PS (S) as marked; uppercase DNA [2'-OMe: 1,2,3,4,7,8,10,11,13,14,19,21,22,23,24,25,26,28; 2'-F: 17,18,27; PS: 6,15]
B8: aptamer No. 19 (mixed)
mixed: B1 mixed
modifications: 2'-OMe (M), 2'-F (F), PS (S) as marked; uppercase DNA [2'-OMe: 1-4,7,8,10,13,14,21-26,28; 2'-F: 17,18,27; PS: 6]
B9: aptamer No. 23 (mixed)
mixed: B1 mixed with U27T
modifications: 2'-OMe (M), 2'-F (F), PS (S) as marked; uppercase DNA [2'-OMe: 1-4,7,8,10,13,14,23-26,29-31; 2'-F: 17; PS: 6]
B10: aptamer No. 4 (mixed)
RNA: B1 mixed with T16U, T20U
modifications: 2'-OMe (M), 2'-F (F), PS (S) as marked; uppercase DNA [1,2,3,4,6,7,8,10,11,13,14,16,17,18,20,21,22,23,24,25,26,27,28]
B11: aptamer No. 25 (mixed)
mixed: B1 mixed with U27T
modifications: 2'-OMe (M), 2'-F (F) as marked; uppercase DNA [2'-OMe: 1-4,7,8,10,13,14,21,23-26,29-31; 2'-F: 17]
B12: aptamer No. 3 (mixed)
RNA: B1 mixed with T16U, T20U
modifications: 2'-OMe (M), 2'-F (F) as marked; uppercase DNA [1,2,3,4,5,7,8,10,11,13,14,16,17,18,20,21,22,23,24,25,26,27]
B13: aptamer No. 24 (mixed)
mixed: B1 mixed with U27T
modifications: 2'-OMe (M), 2'-F (F) as marked; uppercase DNA [2'-OMe: 1-4,7,8,10,13,14,23-26,29-31; 2'-F: 17]
B14: aptamer No. 2 (mixed)
RNA: B1 mixed with T16U, T20U
modifications: 2'-OMe (M), 2'-F (F), PS (S) as marked; uppercase DNA [2'-OMe at 1-3,10; 2'-F at 4,7,8,16,17,20,23,24,27; PS at 6; DNA at 9,29-31]
B15: aptamer No. 20 (mixed)
mixed: B1 mixed
modifications: 2'-OMe (M), 2'-F (F), PS (S) as marked; uppercase DNA [2'-OMe: 1-4,7,8,10,13,14,21,23-26,28; 2'-F: 17,18,27; PS: 6]
B16: aptamer No. 17 (mixed)
mixed: GGGGUAGCCGGAGGAGTCAGTAAUCGGUACCCC
modifications: 2'-OMe (M), 2'-F (F), PS (S) as marked; uppercase DNA [2'-OMe: 1-5,8,9,11,14,15,22,24-27,29; 2'-F: 12,18,19,28; PS: 7]
B17: aptamer No. 18 (mixed)
mixed: B16 mixed
modifications: 2'-OMe (M), 2'-F (F), PS (S) as marked; uppercase DNA; (NI) printed, likely (M) [2'-OMe: 1-5,8,9,11,14,15,24-27,29 (26 printed NI, likely M); 2'-F: 12,18,19,28; PS: 7]
B18: aptamer No. 5 (mixed)
mixed: B16 mixed
modifications: 2'-OMe (M), 2'-F (F), PS (S) as marked; uppercase DNA; SEQ ID NO:2 [1,2,3,4,5,6,7,8,9,11,12,14,15,18,19,22,23,24,25,26,27,28]
B19: aptamer No. 26 (mixed)
mixed: B1 mixed with U27T
modifications: (M)=2'-OMe,(F)=2'-F,(S)=PS, lowercase RNA, uppercase DNA: g(M)g(M)g(M)u(M)Ag(S)c(M)c(M)Gg(M)Agg(M)a(M)gTc(F)agTaau(M)c(M)g(M)g(M)Ta(M)c(M)c(M)c(M)
B20: aptamer No. 50 (ssRNA)
RNA: GGUCUAGCCGGAGGAGUCAGUAAUCGGUAGACC
modifications: 2'-F all U and C except none: ggu(F)c(F)u(F)agc(F)c(F)ggaggagu(F)c(F)agu(F)aau(F)c(F)ggu(F)agac(F)c(F)

Target: T1, IL-17
Test: cell_activity; NIH3T3 IL-6 release
Conditions: chain copies: 2
Description: (§1) First, human IL-17 and the aptamer produced in Example 1-2 were pre-incubated at 37° C. for 30 min, and added to NIH3T3 cell (ATCC, CRL1658) together with mouse TNFα (2 ng/mL). Then, after incubation for 24 hr, the culture supernatant was collected, and the production amount of IL-6 was measured by ELISA method described below. The IL-17 inhibitory action of each aptamer was determined from the production amount of IL-6. For comparison with the aptamer of the present invention, a conventionally-known aptamer (aptamer No. 50) against IL-17 was used.
ELISA method for verifying IL-17 inhibitory action of aptamer: A microtiter plate for ELISA was coated with rat anti-mouse IL-6 antibody (BD Biosciences, 2 μg/mL; 100 μL/well) diluted with PBS, and incubated at 4° C. overnight. The next day, the microtiter plate was washed 3 times with PBS/0.05% Tween 20, and applied blocking with PBS/1% BSA (200 μL/well) at room temperature for 2 hr. Then, the plate was washed 3 times with PBS/0.05% Tween 20. Recombinant mouse IL-6 (BD Biosciences; 100 μL/well) serially diluted with PBS/1% BSA/0.05% Tween 20 or culture supernatants (100 μL/well) were added to the plate. After incubation at room temperature for 2 hr, the plate was washed 3 times with PBS/0.05% Tween 20. Then, 100 μL/well of biotin conjugated rat anti-mouse IL-6 antibody (BD Biosciences) was added to the plate at final dilution of 1/500, and the mixture was reacted at room temperature for 1 hr. After washing 3 times with PBS/0.05% Tween 20, 100 μL/well of alkaline phosphatase conjugated streptavidin was added at final dilution of 1/1000. After 30 min at room temperature, the plate was again washed 4 times with PBS/0.05% Tween 20, and a substrate (1-Step PNPP; Thermo Fisher Scientific Inc; 100 μL/well) was added. After 15 min, aqueous sodium hydroxide solution (2N: 50 μL/well) was added to stop the reaction, and the plate was read on a microtiter reader (Bio-Rad) by using a 405 nm filter.

Row | Binder | IC50 [nM]
1 | B1 | 1.06
2 | B2 | 2.36
3 | B3 | 5.95
4 | B4 | 0.11
5 | B5 | 5.54
6 | B6 | 2.88
7 | B7 | 3.41

Target: T1, IL-17
Test: SPR; IL-17R-Fc on chip
Conditions: chain copies: 2
Description: Whether aptamers shown by aptamer Nos. 1-49 inhibit the binding of IL-17 and IL-17 receptor was evaluated by the surface plasmon resonance method.
For the measurement, BIAcore2000 manufactured by BIAcore was used. […] As an analyte, IL-17 (100 or 150 nM) and an aptamer (50 or 100 nM) shown by aptamer No. 1-49 were mixed, maintained for 15 min and after that the mixture was flown.

Row | Binder | binding signal
8 | B8 | 8.46 % IL-17/IL-17R binding remaining
9 | B9 | 13.4 % IL-17/IL-17R binding remaining
10 | B10 | 26.8 % IL-17/IL-17R binding remaining
11 | B11 | 11.7 % IL-17/IL-17R binding remaining
12 | B12 | 25.3 % IL-17/IL-17R binding remaining
13 | B13 | 15.2 % IL-17/IL-17R binding remaining
14 | B14 | 32 % IL-17/IL-17R binding remaining
15 | B15 | 18.5 % IL-17/IL-17R binding remaining
16 | B16 | 4.21 % IL-17/IL-17R binding remaining
17 | B17 | 13.6 % IL-17/IL-17R binding remaining
18 | B18 | 32.3 % IL-17/IL-17R binding remaining

Target: T1, IL-17
Test: SPR; IL-17 150 nM, aptamer 12.5 or 50 nM
Conditions: chain copies: 2
Description: Whether the synthesized aptamers inhibit the binding of IL-17 and IL-17 receptor was evaluated by the surface plasmon resonance method.
For the measurement, BIAcore T100 manufactured by GE Healthcare Bio Sciences was used. […] As an analyte, IL-17 (150 nM) and each aptamer (12.5 or 50 nM) shown by Table 3 were mixed, maintained for 15 min and after that the mixture was flown.

Row | Binder | binding signal
19 | B4 | 19 % IL-17/IL-17R binding remaining

Target: T2, IL-17 (IL-17A)
Test: cell_activity; IL-6 release, NIH3T3, 37 C
Conditions: chain copies: 2
Description: as §1, with “1-1” for “1-2”, “the” for “the production”, “BD Cytometric Bead Array (BD Biosciences).” for “ELISA method described below.”

Row | Binder | IC50 [nM]
20 | B19 | 0.78

Target: T1, IL-17
Test: cell_activity; NIH3T3 IL-6 release
Conditions: chain copies: 2
Remark: another data set of the same source
Description: as §1, with “1-1” for “1-2”, “the” for “the production”, “BD Cytometric Bead Array (BD Biosciences).” for “ELISA method described below.”

Row | Binder | IC50 [nM]
21 | B8 | 2.78
22 | B9 | 1.34
23 | B10 | 2.78
24 | B11 | 1.64
25 | B12 | 2.08
26 | B13 | 1.77
27 | B14 | 0.68
28 | B15 | 0.37
29 | B16 | 0.3
30 | B17 | 0.15
31 | B18 | 0.13

Target: T1, IL-17
Test: cell_activity; NIH3T3 IL-6 release, human IL-17 + mouse TNFa, 37 C; 8.63 nM in Table 6
Conditions: chain copies: 2
Description: as §1
ELISA method for verifying IL-17 inhibitory action of aptamer: A microtiter plate for ELISA was coated with rat anti-mouse IL-6 antibody (BD Biosciences, 2 μg/mL; 100 μL/well) diluted with PBS, and incubated at 4° C. overnight. The next day, the microtiter plate was washed 3 times with PBS/0.05% Tween 20, and applied blocking with PBS/1% BSA (200 μL/well) at room temperature for 2 hr. Then, the plate was washed 3 times with PBS/0.05% Tween 20. Recombinant mouse IL-6 (BD Biosciences; 100 μL/well) serially diluted with PBS/1% BSA/0.05% Tween 20 or culture supernatants (100 μL/well) were added to the plate. […] After 15 min, aqueous sodium hydroxide solution (2N: 50 μL/well) was added to stop the reaction, and the plate was read on a microtiter reader (Bio-Rad) by using a 405 nm filter.

Row | Binder | IC50 [nM]
32 | B20 | 7.36

— patent US20160046944, “APTAMER TO IL-17 AND USE THEREOF” (THE UNIVERSITY OF TOKYO, published 2016)
